Data reported in the supplement of paper PMC7877785.
± gives the uncertainty stated by the source.

Experiment: self-splicing fitness, log relative to wild type (ln ratio); higher = more splicing; Tetrahymena group I intron in knt gene, E. coli kanamycin selection, DiMSum; sequences stand for … in CUCUCU…GGAGGGAAAAGUUAUCAGGCAUGCACCUGGUAGCUAGUCUUUAAACCAAUAGAUUGCAUCGGUUUAAAAGGCAAGACCGUCAAAUUGCGGGAAAGGGGUCAACAGCCGUUCAGUACCAAGUCUCAGGGGAAACUUUGAGAUGGCCUUGCAAAGGGUAUGGUAAUAAGCUGACGGACAUGGUCCUAACCACGCAGCCAAGUCCUAAGUCAACAGAUCUUCUGUUGAUAUGGAUGCAGUUCACAGACUAAAUGUCGGUCGGGGAAGAUGUAUUCUUCUCAUAAGAUAUAGUCGGACCUCUCCUUAAUGGGAGCUAGCGGAUGAAGUGAUGCAACACUGGAGCCGCUGGGAACUAAUUUGUAUGCGAAAGUAUAUUGAUUAGUUUUGGAGUACUCGUGGUCG
Summary of the method: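 Fitness was computed with DiMSum as the error-weighted combination of replicate fold changes, kanamycin versus none, each normalised to wild type. The library randomised all eight intron nucleotides of the P1ex region, with the intron placed in the knt kanamycin-resistance gene on pET-22b(+) in E. coli BL21(DE3). Six replicate transformations were grown overnight at 37°C or 30°C on LB agar with or without 25 μg/mL kanamycin, plus 100 μg/mL carbenicillin, 50 μM IPTG and 0.2% rhamnose. Pooled colonies were amplicon-sequenced on an Illumina HiSeq 2500.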

Row | Sequence | self-splicing fitness (ln) (37 °C) | self-splicing fitness (ln) (30 °C)
1 | GCAGAGCAAUAUUACGCGCU | -2.13 ± 0.35 | 
2 | GCAGAGCAAUAUUACGCGGG | -2.24 ± 0.28 | -3.58 ± 0.39
3 | GCAGAGCAAUAUUACGCGUU | -2.09 ± 0.16 | -1.48 ± 0.11
4 | GCAGAGCAAUAUUACGGAAC | -0.993 ± 0.17 | 
5 | GCAGAGCAAUAUUACGGCUC | -1.99 ± 0.46 | -2.69 ± 0.37
6 | GCAGAGCAAUAUUACGGGUA | -3.68 ± 0.33 | -3.16 ± 0.18
7 | GCAGAGCAAUAUUACGGUUA | -2.17 ± 0.16 | -2.95 ± 0.17
8 | GCAGAGCAAUAUUACGUAAG | -1.88 ± 0.23 | -1.79 ± 0.16
9 | GCAGAGCAAUAUUACGUACA | -0.806 ± 0.24 | -2.86 ± 0.28
10 | GCAGAGCAAUAUUACGUACG | -1.77 ± 0.35 | -2.22 ± 0.45
11 | GCAGAGCAAUAUUACGUACU | -2.29 ± 0.32 | -3.98 ± 0.3
12 | GCAGAGCAAUAUUACGUCAC | -2.48 ± 0.32 | -3.67 ± 0.34
13 | GCAGAGCAAUAUUACGUGAA | -1.59 ± 0.19 | -3.15 ± 0.14
14 | GCAGAGCAAUAUUACGUGAU | -1.5 ± 0.18 | -2.24 ± 0.16
15 | GCAGAGCAAUAUUACGUUAU | -2.44 ± 0.44 | -2.65 ± 0.46
16 | GCAGAGCAAUAUUACGUUGU | -3.02 ± 0.29 | -5.06 ± 0.46
17 | GCAGAGCAAUAUUACGUUUG | -2.77 ± 0.25 | -3.98 ± 0.27
18 | GCAUAGCAAUAUUACGAAAU | -1.31 ± 0.12 | -1.98 ± 0.13
19 | GCAUAGCAAUAUUACGACAG | -2.71 ± 0.33 | -3.41 ± 0.26
20 | GCAUAGCAAUAUUACGACGU | 0.152 ± 0.12 | -0.0199 ± 0.12
21 | GCAUAGCAAUAUUACGACUU | -0.0367 ± 0.089 | -0.481 ± 0.078
22 | GCAUAGCAAUAUUACGAGAU | -2.13 ± 0.33 | -3.61 ± 0.46
23 | GCAUAGCAAUAUUACGAGGC | -1.27 ± 0.36 | -3.26 ± 0.43
24 | GCAUAGCAAUAUUACGCAAC | -2.6 ± 0.37 | -3.96 ± 0.33
25 | GCAUAGCAAUAUUACGCACA | 0.000212 ± 0.091 | -0.886 ± 0.11

Row | Sequence | self-splicing fitness (ln) (37 °C) | self-splicing fitness (ln) (30 °C)
26 | GCAUAGCAAUAUUACGCGCA | -0.397 ± 0.14 | -1.09 ± 0.12
27 | GCAUAGCAAUAUUACGCGGC | -2.38 ± 0.34 | -3.32 ± 0.33
28 | GCAUAGCAAUAUUACGCGGG | -0.875 ± 0.11 | -3.23 ± 0.14
29 | GCAUAGCAAUAUUACGCUCG | -0.165 ± 0.13 | -0.827 ± 0.11
30 | GCAUAGCAAUAUUACGCUGU | -1.69 ± 0.23 | -3.06 ± 0.17
31 | GCAUAGCAAUAUUACGGAUU | -1.29 ± 0.097 | -2.81 ± 0.11
32 | GCAUAGCAAUAUUACGGCGU | 0.0454 ± 0.089 | -0.347 ± 0.091
33 | GCAUAGCAAUAUUACGGCUG | -1.22 ± 0.18 | -1.97 ± 0.16
34 | GCAUAGCAAUAUUACGGUAA | -0.658 ± 0.15 | -2.31 ± 0.16
35 | GCAUAGCAAUAUUACGGUAG | -3.01 ± 0.3 | -3.52 ± 0.26
36 | GCAUAGCAAUAUUACGGUCU | -0.521 ± 0.092 | -1.57 ± 0.098
37 | GCAUAGCAAUAUUACGGUGA | 0.678 ± 0.13 | -0.491 ± 0.11
38 | GCAUAGCAAUAUUACGUAUG | -2.44 ± 0.26 | -2.85 ± 0.17
39 | GCAUAGCAAUAUUACGUCAU | -1.89 ± 0.098 | -3.5 ± 0.16
40 | GCCAAGCAAUAUUACGAAUA | -2.72 ± 0.18 | -2.96 ± 0.17
41 | GCCAAGCAAUAUUACGACUC | 0.136 ± 0.098 | -0.25 ± 0.08
42 | GCCAAGCAAUAUUACGACUG | -1.94 ± 0.15 | -4.32 ± 0.23
43 | GCCAAGCAAUAUUACGACUU | -1.68 ± 0.16 | -2.29 ± 0.15
44 | GCCAAGCAAUAUUACGAUGA | -1.66 ± 0.12 | -3.12 ± 0.19
45 | GCCAAGCAAUAUUACGCACC | 0.932 ± 0.41 | -0.566 ± 0.22
46 | GCCAAGCAAUAUUACGCCAC | -1.25 ± 0.27 | 
47 | GCCAAGCAAUAUUACGCCUA | -0.61 ± 0.18 | -0.609 ± 0.16
48 | GCCAAGCAAUAUUACGCGUG | -1.97 ± 0.1 | -3.46 ± 0.11
49 | GCCAAGCAAUAUUACGCUCC | 0.717 ± 0.17 | -0.474 ± 0.14
50 | GCCAAGCAAUAUUACGCUUC | -1.17 ± 0.16 | -2.75 ± 0.14

Row | Sequence | self-splicing fitness (ln) (37 °C) | self-splicing fitness (ln) (30 °C)
51 | GCCAAGCAAUAUUACGCUUU | -1.18 ± 0.072 | -0.998 ± 0.051
52 | GCCAAGCAAUAUUACGGAGU | -1.57 ± 0.09 | -0.992 ± 0.066
53 | GCCAAGCAAUAUUACGGCCA | -1.18 ± 0.25 | -1.42 ± 0.21
54 | GCCAAGCAAUAUUACGGGCC | -2.13 ± 0.32 | 
55 | GCCAAGCAAUAUUACGGGGG | -2.35 ± 0.14 | -4.11 ± 0.19
56 | GCCAAGCAAUAUUACGGGGU | -2.55 ± 0.14 | -4.5 ± 0.18
57 | GCCAAGCAAUAUUACGGUCA | -0.271 ± 0.067 | -1.59 ± 0.078
58 | GCCAAGCAAUAUUACGGUUA | -0.00086 ± 0.07 | -0.632 ± 0.072
59 | GCCAAGCAAUAUUACGUAGG | -1.78 ± 0.17 | -3.32 ± 0.18
60 | GCCAAGCAAUAUUACGUCAG | -2.73 ± 0.28 | -3.6 ± 0.23
61 | GCCAAGCAAUAUUACGUGCA | -0.541 ± 0.09 | -1.63 ± 0.087
62 | GCCAAGCAAUAUUACGUUGA | -1.39 ± 0.065 | -2.53 ± 0.065
63 | GCCCAGCAAUAUUACGACAG | -1.78 ± 0.14 | -3.6 ± 0.19
64 | GCCCAGCAAUAUUACGACCC | -0.0967 ± 0.21 | -0.0226 ± 0.14
65 | GCCCAGCAAUAUUACGACCU | -0.407 ± 0.15 | -1.07 ± 0.12
66 | GCCCAGCAAUAUUACGACGA | -0.475 ± 0.15 | -1.31 ± 0.15
67 | GCCCAGCAAUAUUACGAGGU | -3.07 ± 0.22 | -3.81 ± 0.2
68 | GCCCAGCAAUAUUACGAGUU | -0.432 ± 0.066 | -1.13 ± 0.048
69 | GCCCAGCAAUAUUACGAUAG | -3.33 ± 0.2 | -2.76 ± 0.14
70 | GCCCAGCAAUAUUACGCCUU | 0.189 ± 0.088 | -1.02 ± 0.081
71 | GCCCAGCAAUAUUACGCGAG | -1.73 ± 0.13 | -2.72 ± 0.11
72 | GCCCAGCAAUAUUACGCGGG | -2.31 ± 0.22 | -3.71 ± 0.2
73 | GCCCAGCAAUAUUACGCUCU | 0.138 ± 0.066 | 0.00415 ± 0.05
74 | GCCCAGCAAUAUUACGCUUC | -1.33 ± 0.091 | -1.18 ± 0.089
75 | GCCCAGCAAUAUUACGGAAU | 0.223 ± 0.078 | -0.828 ± 0.056

Row | Sequence | self-splicing fitness (ln) (37 °C) | self-splicing fitness (ln) (30 °C)
76 | GCCCAGCAAUAUUACGGGUA | -0.511 ± 0.06 | -1.34 ± 0.061
77 | GCCCAGCAAUAUUACGGGUU | -3.4 ± 0.19 | -3.01 ± 0.12
78 | GCCCAGCAAUAUUACGGUCG | -1.31 ± 0.096 | -1.61 ± 0.083
79 | GCCCAGCAAUAUUACGGUCU | -0.732 ± 0.081 | -1.97 ± 0.063
80 | GCCCAGCAAUAUUACGUAGU | -0.0932 ± 0.066 | -0.118 ± 0.051
81 | GCCCAGCAAUAUUACGUCUG | -2.73 ± 0.17 | -3.86 ± 0.14
82 | GCCCAGCAAUAUUACGUGCU | -2.88 ± 0.21 | -3.14 ± 0.16
83 | GCCCAGCAAUAUUACGUUCC | -0.603 ± 0.14 | -1.28 ± 0.096
84 | GCCCAGCAAUAUUACGUUGC | -0.368 ± 0.094 | -1.11 ± 0.063
85 | GCCGAGCAAUAUUACGAAUG | -2.75 ± 0.27 | -3.59 ± 0.3
86 | GCCGAGCAAUAUUACGACUU | -0.625 ± 0.34 | -1.04 ± 0.31
87 | GCCGAGCAAUAUUACGAGGA | -0.747 ± 0.1 | -1.32 ± 0.11
88 | GCCGAGCAAUAUUACGAUCA | -1.69 ± 0.15 | -1.91 ± 0.12
89 | GCCGAGCAAUAUUACGCAAA | -1.05 ± 0.34 | 
90 | GCCGAGCAAUAUUACGCAAG | -1.25 ± 0.36 | -2.91 ± 0.44
91 | GCCGAGCAAUAUUACGCCUG | -2.03 ± 0.22 | -3.59 ± 0.23
92 | GCCGAGCAAUAUUACGCGGA | 0.224 ± 0.14 | -1.04 ± 0.17
93 | GCCGAGCAAUAUUACGCGUG | -1.32 ± 0.091 | -2.05 ± 0.088
94 | GCCGAGCAAUAUUACGCUCA | -0.829 ± 0.21 | -0.335 ± 0.17
95 | GCCGAGCAAUAUUACGGAGC |  | -2.69 ± 0.44
96 | GCCGAGCAAUAUUACGGCCC | -1.93 ± 0.24 | -2.4 ± 0.19
97 | GCCGAGCAAUAUUACGGCGC | -0.221 ± 0.23 | -1.48 ± 0.23
